From article PMC3660597, “Investigation of Specificity Determinants in Bacterial tRNA-Guanine Transglycosylase Reveals Queuine, the Substrate of Its Eucaryotic Counterpart, as Inhibitor” (PLoS ONE, 2013) come the findings set out here.

The Kd is the equilibrium constant for the complex coming apart.

This series concerns Tgt "wild type" (tRNA-guanine transglycosylase) (Zymomonas mobilis). The series is described as follows: MST. As to conditions: buffer, salt, pH and temperature not given in the material.

On to tRNATyr, for which the Kd came out at 36.2 nM.
